From patent US20220193270A1, “METHOD FOR ENHANCING TUMOR GROWTH” (MINERVA BIOTECHNOLOGIES CORPORATION, priority 2013, published 2022)

Columns and labels:
T47D breast cancer cells = test: T47D xenograft engraftment, cells mixed with Matrigel plus NME7, with or without daily NME7 injections; format: in vivo, nu/nu mice
Protocol: Example 1: Immune-compromised nu/nu mice between 40-60 days old were implanted with 90-day estrogen release pellets to foster the engraftment and growth of breast tumor cells. Human T47D breast cancer cells were mixed 1:2 with Matrigel then injected into the flank of the mouse (4 million each mouse), six (6) mice per group. In a second group, cancer cells were mixed with Matrigel at the same 1:2 ratio (100 uL cells: 200 ul Matrigel) except, human recombinant NME7-AB was added into the cell/Matrigel mix to a final NME7 concentration of 16 nM (6 mice). Of those six (6) mice, three (3) were randomly chosen to receive NME7 injections daily (100 uL at 32 nM), after day 14. […] After Day 14, the mice whose tumor cells were mixed with NME7 were also injected once daily with human recombinant NME7. […] After Day 14, half of the mice were also injected once daily with human recombinant NME7. […] Dashed lines indicate mice that were also injected with NME7 after Day 14.

human fibroblasts = test: RT-PCR of stem/cancer markers and chromatin rearrangement factors in fibroblasts cultured with NME proteins; format: cell-based; settings: after 15-20 days in culture
Protocol: Agents that are able to maintain stem cells in the naive state are also able to transform somatic cells to a cancer or stem-like state. Human NME1 dimer or human NME7 are able to make somatic cells revert to a less mature state, expressing stem and cancer cell markers. Bacterial NME from HSP 593 was tested alongside the human homologs to determine if it could mimic their function by being able to revert somatic cells to a cancer-like state. Human fibroblasts were cultured in a serum-free minimal base media with either HSP 593, human NME1 dimers or human NME7-AB as the only growth factor or cytokine. […] Recalling that stem cells and metastatic cancer cells can grow anchorage-independently, we repeated the experiments but this time a rho kinase inhibitor was added to one set of cells to make the cells adhere to the surface. […] Photos of the experiment show the dramatic change in morphology as the fibroblasts revert when cultured in human or bacterial NME, FIGS. 52-59. The relative order of efficiency of reverting somatic cells to a less mature state was NME7>NME1 dimers >NME1 bacterial. […] However, Bacterial NME from HSP 593 apparently up-regulates expression of human NME7 and NME1.
Example 3d: In this example, fibroblast cells were cultured in the presence of recombinant human NME1/NM23 dimers, bacterial HSP593 NME1 dimers or NME7-AB. The fibroblasts were cultured in their normal media as a control, which is for 500 mL, 445 mL DMEM high glucose base media, 5 mL GlutaMAX and 50 mL of fetal bovine serum (FBS). After 15-20 days in culture with either NME1/NM23 dimers, bacterial HSP593 NME1 dimers or NME7-AB, the morphology of the cells completely changed so that they no longer were recognizable as fibroblasts. […] Here, ‘minus ROCi’ refers to cells that became non-adherent and floated off the surface.

T47D cancer stem cells = test: Tumor initiation and metastasis from low numbers of NME7-AB-induced T47D cancer stem cells, with or without daily NME7-AB injections; format: in vivo, nu/nu female mice
Protocol: T47D breast cancer cells were cultured as described in Example 3a above. After 7-10 days culture in minimal media to which was added rhNME7-AB to a final concentration of 4 nM, floating cells were collected. […] The floating cells were counted and re-suspended in PBS. The NME7-induced cancer stem cells were mixed 1:2 with reduced growth factor Matrigel; that is 2 parts Matrigel to 1 part cells. A range of ratios of cancer cells to NME7 or the injection schedule of NME7 is expected to vary from one mouse strain to another and from one tumor type to another.
The cancer stem cells were implanted in the flank of female nu/nu mice which had previously been implanted with a 90-day release estrogen pellet in the shoulder area. Four (4) groups of six (6) mice each were implanted with either 50, 100, 1,000 or 10,000 T47D cancer stem cells. In each case the total volume injected into each mouse was 100 uL. Half of the mice in each group were injected daily with 200 uL of recombinant human NME7-AB in the flank near but not at the cancer stem cell implantation site.
Animals were monitored for food intake and body weight, which were normal and stable. Two (2) independent and blinded tumor measurements were taken once a week and recorded.

[1] = target: T1, PSMGFR peptide of the MUC1* extracellular domain (Homo sapiens, UniProt P15941); test: ELISA binding to PSMGFR peptide; settings: FIG. 47, FIG. 48b
T1 sequence (P15941 1110-1154 limits assumed): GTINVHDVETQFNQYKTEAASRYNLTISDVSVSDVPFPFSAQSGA
Description: We made recombinant human NM23, also called NME1, dimers that bear the […] mutation that stabilizes dimers. We previously reported that human NME1 dimers bind to the PSMGFR portion of the extracellular domain of the MUC1* receptor (Smagghe et al. 2013). We also made recombinant human NME7-AB that is secreted as a monomer. […] We made recombinant bacterial NME proteins found in Halomonas Sp. 593 (‘HSP 593’) and in Porphyromonas gingivalis W83 that had high sequence homology to human NME1 and had been reported to exist in dimer state (FIG. 48 and FIG. 49). HSP 593 expressed well in E. coli and a significant portion was present as a dimer, which population was then purified by FPLC and confirmed the dimer population (FIG. 48a).

binding to PSMGFR portion of the MUC1* extracellular domain [1]: bind to and dimerize
B1: NME7-AB: recombinant human NME7 variant (A and B domains, SEQ ID NO:39) secreted as a monomer; 'NME7' in the experiments means this protein (protein)
chain: MEKTLALIKPDAISKAGEIIEIINKAGFTITKLKMMMLSRKEALDFHVDHQSRPFFNELIQFITTGPIIAMEILRDDAICEWKRLLGPANSGVARTDASESIRALFGTDGIRNAAHGPDSFASAAREMELFFPSSGGCGPANTAKFTNCTCCIVKPHAVSEGLLGKILMAIRDAGFEISAMQMFNMDRVNVEEFYEVYKGVVTEYHDMVTEMYSGPCVAMEIQQNNATKTFREFCGPADPEIARHLRPGTLRAIFGKTKIQNAVHCTDLPEDGLLEVQYFFKILDN
modifications: Human NME7-AB
notes: 'NME7' in the experiments means this protein
engraftment rate (T47D breast cancer cells; cancer cells mixed with NME7 prior to implantation alone): 33%
engraftment rate (T47D breast cancer cells; mixed with NME7 prior to implantation plus NME7 injections into the animal after cell implantation): 66%
implanted mice showing tumor growth characteristic of engraftment (T47D breast cancer cells; of six (6) implanted mice, T47D mixed with Matrigel and NME7 (two of six with standard Matrigel)): 4
average growth increase from Day 7 until day 21 (T47D breast cancer cells; tumors mixed with NME7 prior to implantation (57% without it)): 144%
expression of stem cell marker genes OCT4 and NANOG (human fibroblasts; FIG. 15): greatly increased expression
expression of BRD4, JMJD6, MBD3 and CHD4 (human fibroblasts; FIG. 16): decreased expression
mice that developed tumors (T47D cancer stem cells; all 24 mice implanted with 50, 100, 1,000 or 10,000 NME7-induced cancer stem cells): 67%
number of implanted cells that initiate tumors in mice (T47D cancer stem cells; cancer stem cells generated by culture in NME7-AB): ≤ 50 cells
time after which cancers metastasized (T47D cancer stem cells; group injected with NME7 daily): about 50 days
mice that formed tumors (T47D cancer stem cells; implanted with NME7-induced cancer stem cells and receiving daily injections of NME7): 83%
mice that formed tumors (T47D cancer stem cells; implanted with NME7-induced cancer stem cells, no circulating NME7 (no daily injections)): 50%
tumor-bearing mice that developed cancer metastasis (multiple tumors) (T47D cancer stem cells; of the daily NME7-injected mice that formed tumors, by approximately Day 50): 80%
